Results on two molecules are retold here after US20200368208, “Protein Translation Inhibitors and Uses Thereof” (University of Baltimore, Maryland, published 2020).

For series [1], the target named is T1, hnRNP A18 (CIRP), full length, GST fusion (UniProt Q14011 Q14011:1-172).
T1 sequence: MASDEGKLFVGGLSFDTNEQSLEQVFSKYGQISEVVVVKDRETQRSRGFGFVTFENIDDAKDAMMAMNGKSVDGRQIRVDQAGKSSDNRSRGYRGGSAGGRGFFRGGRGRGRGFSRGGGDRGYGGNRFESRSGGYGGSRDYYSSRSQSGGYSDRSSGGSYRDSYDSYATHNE
Kind of series: FP; 25 C, 30 min; binding competed by small molecules (compound 1 IC50 6.4 uM; compounds 5, 2, 3, 4 IC50 2.9, 15, 13, 39 uM); no Kd given. As to conditions: tags: GST; label: 3' T-fluorescein (position 5 of thymine, 6-carbon spacer).

Series [2] has as its target T2, hnRNP A18 (CIRP), full length, His-tagged (UniProt Q14011 Q14011:1-172).
T2 sequence: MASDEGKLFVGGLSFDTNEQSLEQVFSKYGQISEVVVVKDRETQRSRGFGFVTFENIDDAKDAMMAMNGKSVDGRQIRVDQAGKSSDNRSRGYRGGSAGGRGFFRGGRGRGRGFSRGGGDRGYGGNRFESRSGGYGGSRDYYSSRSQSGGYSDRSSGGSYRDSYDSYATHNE
Kind of series: EMSA; 1 ug protein in 20 ul; competed by compounds 1-6. As to conditions: tags: His; label: 3' biotin. How it is done: RNA band shifts were performed according to the manufacturer recommendations (LightShift Chemiluminescent RNA EMSA kit, Thermo Scientific, Rockford, Ill.). Briefly recombinant His-hnRNP A18 or His-hnRNP A1 (1 μg) were incubated with biotinylated RNA (hnRNP A18 motif 1, IRE 28 or 51 nucleotides) in 20 μl and run on native polyacrylamide gels transfer to nylon probes and hybridize with streptavidin HRP antibody.
(In general: Mobility shift assays separate free from complexed probe on a gel.)

B1: hnRNP A18 motif 1 fluorescein (ssRNA)
RNA: GCAGAUCCAGGGUGGGAUUUUCUUGAGGAAGUUACAAAUAAGCUUGUUACA
In the case of B1, the binding result in series [1] was “binds”.

B2: hnRNP A18 motif 1 biotin (ssRNA)
RNA: GCAGAUCCAGGGUGGGAUUUUCUUGAGGAAGUUACAAAUAAGCUUGUUACA
As for B2, the binding result in series [2] is “binds”.
